The RNAGym collection of RNA variant scans (doi:10.7554/elife.90254)

B1: OR4K15 (parent)
chain: GUUAACGGUCAUAGGCCAUGGAAACUAGGAGCACCAUUUCGCUGCCAGUGAAGAAAUGAACAAAGAAAAUCUGGGCCAGGCAGGCAUCAAAAGAAAUAGUCUUGCGCUCAACCAGAAAGUCUGUAAUCAUUUUAAGGGUA

Variants of: B1
Assay: self-cleavage, relative activity (ratio to wild type); higher = more cleavage; in vitro, sequencing; the parent is a self-cleaving ribozyme
Work on GUUAUCGGUCAUAGGCCAUGGAAACUAGGAGCACCAUUUCGCUGCCAGUGAAGAAAUGAACAAAGAAAAUCUGGGCCAGGCAGGCAUCAAAAGAAAUAGUCUUGCGCUCAACCAGGAAGUCUGUAAUCAUUUUAAGGGUA [A5U A116G] yielded a self-cleavage of 1.13.
In the case of GUUAUUGGUCAUAGGCCAUGGAAACUAGGAGCACCAUUUCGCUGCCAGUGAAGAAAUGAACAAAGAAAAUCUGGGCCAGGCAGGCAUCAAAAGAAAUAGUCUUGCGCUCAACCAGAAAGUCUGUAAUCAUUUUAAGGGUA [A5U C6U], the self-cleavage is reported as 1.27.
GUUAUCGGUCAUAGGCCAUGGAAACUAGUAGCACCAUUUCGCUGCCAGUGAAGAAAUGAACAAAGAAAAUCUGGGCCAGGCAGGCAUCAAAAGAAAUAGUCUUGCGCUCAACCAGAAAGUCUGUAAUCAUUUUAAGGGUA [A5U G29U] gave a self-cleavage of 1.39.
Variant GUUAUCGGUCAUAGGCCAUGGAAACUAGAAGCACCAUUUCGCUGCCAGUGAAGAAAUGAACAAAGAAAAUCUGGGCCAGGCAGGCAUCAAAAGAAAUAGUCUUGCGCUCAACCAGAAAGUCUGUAAUCAUUUUAAGGGUA [A5U G29A] has a self-cleavage of 1.2.
GUUAUCGGUCAUAGGCCAUGGAAACUAGGAGCACCAUUUCGCUGCCAGUGAAGAAAUGAACAAAGAAAAUCUGGGCCAGGCAGGCAACAAAAGAAAUAGUCUUGCGCUCAACCAGAAAGUCUGUAAUCAUUUUAAGGGUA [A5U U87A] showed a self-cleavage of 1.2.
GUUAUCGGUCAUAGGCCAUGGAAACUAGGAGCACCAUUUCGCUGCCAGUGAAGAAAUGAACAAAGAAAAUCUGGGCCAGGCAGGCAUCAAAAGAAAUAGUCUUGCGCUCAACCAGAGAGUCUGUAAUCAUUUUAAGGGUA [A5U A117G] showed a self-cleavage of 1.74.
In the case of GUUAUCGGUCAUAGGCCAUGGAAACCAGGAGCACCAUUUCGCUGCCAGUGAAGAAAUGAACAAAGAAAAUCUGGGCCAGGCAGGCAUCAAAAGAAAUAGUCUUGCGCUCAACCAGAAAGUCUGUAAUCAUUUUAAGGGUA [A5U U26C], the self-cleavage is reported as 0.57.
For GUUAUCGGUCAUAGGCCAUGGAAACUAGGAGCACCAUUUCGCUGCCAGUGAAGAAAUGAACCAAGAAAAUCUGGGCCAGGCAGGCAUCAAAAGAAAUAGUCUUGCGCUCAACCAGAAAGUCUGUAAUCAUUUUAAGGGUA [A5U A62C], the self-cleavage was 1.64.
For GUUAUCGGUCAUAGGCCAUGGAAACUAGGAGCACCAUUUCGCUGCCAGUGAAGAAAUGAACAAAGAAAAUCUGGGCCAGGCAGGCAUCAAAAGAAAUAGUCUUGCGCUCAACCGGAAAGUCUGUAAUCAUUUUAAGGGUA [A5U A114G], the self-cleavage was 0.49.
Work on GUUAUCGGUCAUAGGCCAUGGAAACUAGGAGCACCAUUUCGCAGCCAGUGAAGAAAUGAACAAAGAAAAUCUGGGCCAGGCAGGCAUCAAAAGAAAUAGUCUUGCGCUCAACCAGAAAGUCUGUAAUCAUUUUAAGGGUA [A5U U43A] yielded a self-cleavage of 2.16.
Variant GUUAUCGGUCAUAGGCCAUGGAAACUAGGAGCACCAUUUCGCUGCCAGUGAAGAAAUGAACAAAGAAAAUCUGGGCCAGGCAGGCAUCAAAAGAAAUAGUCUUGCGCUCAACCAGAAAGUCUGUAGUCAUUUUAAGGGUA [A5U A126G] has a self-cleavage of 1.07.
Variant GUUAUCGGUCAUAGGCCAUGGAAACUAGGAGCACCAUUUCGCUGCCGGUGAAGAAAUGAACAAAGAAAAUCUGGGCCAGGCAGGCAUCAAAAGAAAUAGUCUUGCGCUCAACCAGAAAGUCUGUAAUCAUUUUAAGGGUA [A5U A47G] has a self-cleavage of 1.
GUUAUCGGUCAUAGGCCAUGGAAACUAGGAGCACCAUUUCGCUGCCAGUGAAGAAAUGAACAAAGAAAAUCUGGGCCAGGCGGGCAUCAAAAGAAAUAGUCUUGCGCUCAACCAGAAAGUCUGUAAUCAUUUUAAGGGUA [A5U A82G] showed a self-cleavage of 0.6.
Work on GUUAUCGGCCAUAGGCCAUGGAAACUAGGAGCACCAUUUCGCUGCCAGUGAAGAAAUGAACAAAGAAAAUCUGGGCCAGGCAGGCAUCAAAAGAAAUAGUCUUGCGCUCAACCAGAAAGUCUGUAAUCAUUUUAAGGGUA [A5U U9C] yielded a self-cleavage of 1.27.
With GUUAUCGGUCAUAGGCCAUGGAAACUAGGAGCACCAUUUCGCUGCCAGUGAAGAAUUGAACAAAGAAAAUCUGGGCCAGGCAGGCAUCAAAAGAAAUAGUCUUGCGCUCAACCAGAAAGUCUGUAAUCAUUUUAAGGGUA [A5U A56U] the self-cleavage was 1.15.
GUUAUCGGUCAUAGGCCAUGGAAACUAGGAGCACCAUUUCGCUGCCAGUGAAGAAGUGAACAAAGAAAAUCUGGGCCAGGCAGGCAUCAAAAGAAAUAGUCUUGCGCUCAACCAGAAAGUCUGUAAUCAUUUUAAGGGUA [A5U A56G] gave a self-cleavage of 1.76.
In the case of GUUAUCGGUCAUAGGCCAUGGAAACUAGGAGCACCAUUCCGCUGCCAGUGAAGAAAUGAACAAAGAAAAUCUGGGCCAGGCAGGCAUCAAAAGAAAUAGUCUUGCGCUCAACCAGAAAGUCUGUAAUCAUUUUAAGGGUA [A5U U39C], the self-cleavage is reported as 1.1.
In the case of GUUAUCGGUCAUAGGCCAUGGAAACUAGGAGCACCAUUUCGAUGCCAGUGAAGAAAUGAACAAAGAAAAUCUGGGCCAGGCAGGCAUCAAAAGAAAUAGUCUUGCGCUCAACCAGAAAGUCUGUAAUCAUUUUAAGGGUA [A5U C42A], the self-cleavage is reported as 1.82.
GUUAUCGGUCAUAGGCCAUGGAAACUAGGAGCACCAUUUCGCUGCCAGUGAAGAAAUGAACAAAGAAAAUCUGGGCCAGGCAGGCAUCAGAAGAAAUAGUCUUGCGCUCAACCAGAAAGUCUGUAAUCAUUUUAAGGGUA [A5U A90G] showed a self-cleavage of 0.78.
In the case of GUUAUCGGUCAUAGGCCAUGGAAACUAGGAGCACCAUUUCGCUGCCAGUGAAGAAAUGAACAAAGAAAAUCUGGGCCAGGCAGGCAUCAAAAGGAAUAGUCUUGCGCUCAACCAGAAAGUCUGUAAUCAUUUUAAGGGUA [A5U A94G], the self-cleavage is reported as 1.51.
In the case of GUUAUCGGUCAUAGGCCAUGGAAACUAGGAGCACCAUUUCGCUGCCAGUGAAGAAAUGAACAGAGAAAAUCUGGGCCAGGCAGGCAUCAAAAGAAAUAGUCUUGCGCUCAACCAGAAAGUCUGUAAUCAUUUUAAGGGUA [A5U A63G], the self-cleavage is reported as 1.2.
In the case of GUUAUCGGUCAUAGGCCAUGGAAACUAGGAGCACCAUUUCGCUUCCAGUGAAGAAAUGAACAAAGAAAAUCUGGGCCAGGCAGGCAUCAAAAGAAAUAGUCUUGCGCUCAACCAGAAAGUCUGUAAUCAUUUUAAGGGUA [A5U G44U], the self-cleavage is reported as 0.8.
Variant GUUAGCGGUCAUAGGCCAUGGAAACUAGGAGCACCAUUUCGCUGCCAGUGAAGAAAUGAACAAAGAAAAUCUGGGCCAGGCAGGCAUCAAAAGAAAUAGUCUUGCGCUCAACCAGAAAGUCUGUAAUCACUUUAAGGGUA [A5G U130C] has a self-cleavage of 1.01.
With GUUAGCGGUCAUAGGCCAUGGAAACUAGGAGCACCAUUUCGCUGCCAGUGAAGAAAUGAACAAAGAAAAUCUGGGCCAGGCAGGCAUCAAAAGAAAUAGUCUUGCGCCCAACCAGAAAGUCUGUAAUCAUUUUAAGGGUA [A5G U108C] the self-cleavage was 0.06.
GUUAGCGGUCAUAGGCCAUGGAAACUAGGAGCACCAUUUCGCUGCCAGUGAAGAAAUGAACAAAGAAAAUCUGGGCCAGGCAGGCAUCAAAAGAAAUAGUCUUGCGCUCAACCAGAAAGCCUGUAAUCAUUUUAAGGGUA [A5G U120C] gave a self-cleavage of 0.86.
With GUUAGCGGUCAUAGGCCAUGGAAACUAGGAGCACCAUUUCGCUGCCAGUGAAGAAAUGAACAAAGAAAAUCUGGGCCAGGCAGGCAUCAAAAGAAAUAGUCUUGCGCUCAACCAGAAAGACUGUAAUCAUUUUAAGGGUA [A5G U120A] the self-cleavage was 1.77.
GUUAUCGGUCAUAGGCCAUGGAAACUAGGAGCACCAUUUCGCUGCCAGUGAAGAAAUGAACAAAGAAAAUCUGGGCCAGGCAGGCAUCAAAAGAGAUAGUCUUGCGCUCAACCAGAAAGUCUGUAAUCAUUUUAAGGGUA [A5U A95G] showed a self-cleavage of 1.59.
GUUAUCGGUCAUAGGCCAUGGGAACUAGGAGCACCAUUUCGCUGCCAGUGAAGAAAUGAACAAAGAAAAUCUGGGCCAGGCAGGCAUCAAAAGAAAUAGUCUUGCGCUCAACCAGAAAGUCUGUAAUCAUUUUAAGGGUA [A5U A22G] showed a self-cleavage of 0.69.
For GUUAUCGGUCAUAGGCCAUGGAAACUAGGAGCACCAUUUCGCUGCCAGUGAAGAAAUGAACAAAGAAAAUCUGGGCCAGGCAGGCAUCAAAAGAAAUAGUCUUGCGCUCAACCAGAAAGUCUGUAAUCGUUUUAAGGGUA [A5U A129G], the self-cleavage was 0.79.
Variant GUUAUCGGUCAUAGGCCAUGGAAACUAGGAGCACCAUUUCGCUGCCAGUGAAGUAAUGAACAAAGAAAAUCUGGGCCAGGCAGGCAUCAAAAGAAAUAGUCUUGCGCUCAACCAGAAAGUCUGUAAUCAUUUUAAGGGUA [A5U A54U] has a self-cleavage of 1.7.
GUUAUCGGUCAUAGGCCAUGGAAACUAGGAGCACCAUUUCGCUGCCAGUGAAGAAAUGAACAAAGAAAAUCUGGGCCAGGCAGGCAUCAAAAGAAAUAGUCUUGCGCUUAACCAGAAAGUCUGUAAUCAUUUUAAGGGUA [A5U C109U] showed a self-cleavage of 0.68.
In the case of GUUAGCGGUCAUAGGCCAUGGAAACUAGGAGCACCAUUUCGCUGCCAGUGAAGAAAUGAACAAAGAAAAUCUGGGCCAGGCAGGCAUCAAAAGAAAUAGUCUUGCGCUCAACCAGAAAGUCAGUAAUCAUUUUAAGGGUA [A5G U122A], the self-cleavage is reported as 1.34.
Work on GUUAGCGGUCAUAGGCCAUGGAAACUAGGAGCACCAUUUCGCUGCCAGUGAAGAAAUGAACAAAGAAAAUCUGGGCCAGGCAGGCAUCAAAAGAAAUAGUCUUGCGCUCAACCAGAAAGUCCGUAAUCAUUUUAAGGGUA [A5G U122C] yielded a self-cleavage of 0.91.
For GUUAUCGGUCAUAGGCCAUGGAAACUAGGAGCACCAUUUCGCUGCCAGUGAAGAAAUGAACAAAGAAAACCUGGGCCAGGCAGGCAUCAAAAGAAAUAGUCUUGCGCUCAACCAGAAAGUCUGUAAUCAUUUUAAGGGUA [A5U U70C], the self-cleavage was 1.03.
With GUUAUCGGUCAUAGGCCAUGGAAACUAGGAGCACCAUUUCGCUGCCAGUGAAGAAAUGAACAAAGAAAAUCUGGGCCAGGCAGGCAUCAAAAGAAAUAGUCUUACGCUCAACCAGAAAGUCUGUAAUCAUUUUAAGGGUA [A5U G104A] the self-cleavage was 0.09.
GUUAUCGGUCAUAGGCCAUGGAAACUAGGAGCACCAUUUCGCUGCCAGUGUAGAAAUGAACAAAGAAAAUCUGGGCCAGGCAGGCAUCAAAAGAAAUAGUCUUGCGCUCAACCAGAAAGUCUGUAAUCAUUUUAAGGGUA [A5U A51U] gave a self-cleavage of 0.66.
In the case of GUUAUCGGUCAUAGGCCAUGGAAACUAGGAGCACCAUUUCGCUGCCAGUGAAGAAAUGAACAAAGAAAAUCUGGGCCAGGCAGGCAUCAAAAGAAAUAGUCAUGCGCUCAACCAGAAAGUCUGUAAUCAUUUUAAGGGUA [A5U U102A], the self-cleavage is reported as 1.12.
Work on GUUAUCGGUCAUAGGCCACGGAAACUAGGAGCACCAUUUCGCUGCCAGUGAAGAAAUGAACAAAGAAAAUCUGGGCCAGGCAGGCAUCAAAAGAAAUAGUCUUGCGCUCAACCAGAAAGUCUGUAAUCAUUUUAAGGGUA [A5U U19C] yielded a self-cleavage of 1.4.
GUUAUCGGUCAUAGGCCAUGGAAACUAGGAGCACCAUUUCGCUGCCAGUGAAGAAAUGAACAAAGAAAAUCUGGGCCAGGCAGGCAUCAAAAGAAAUAGCCUUGCGCUCAACCAGAAAGUCUGUAAUCAUUUUAAGGGUA [A5U U100C] showed a self-cleavage of 1.64.
Work on GUUAUCGGUCAUAGGCCAUGGAAACUAGGAGCACCAUUUCGCUGCCAGUGAAGAAAUGAACAAAGAAAAUCUGGGCCAGGCAGGCAUCAAAAGAAAUAGUCUUGCGCUCAGCCAGAAAGUCUGUAAUCAUUUUAAGGGUA [A5U A111G] yielded a self-cleavage of 0.06.
GUUAUCGGUCAUAGGCCAUGGAAACUAGGAGCACCUUUUCGCUGCCAGUGAAGAAAUGAACAAAGAAAAUCUGGGCCAGGCAGGCAUCAAAAGAAAUAGUCUUGCGCUCAACCAGAAAGUCUGUAAUCAUUUUAAGGGUA [A5U A36U] showed a self-cleavage of 2.27.
